Data on 14 variants can be found in the supplement of paper PMC12783771.

± gives the standard deviation of the averaged measurements.

Sequences and labels used below:
B1: library; a variant is named by its letters at X, in order (parent)
chain: MNIQIGELAKRTACPVVTIRFYEQEGLLPPPGRSRGNFRLYGEEHVERLQFIRHCRSLDMPLSDVRTLLSYRKRPDQDCGEVXMLLDEHIRQVESRIGALLELKHHLVELREACSGARPAQSCGILQXLSXCVCXTRGTTAHXSD

The variants in series [1] derive from B1. In words: sfGFP reporter fluorescence (15 h) (µM FITC); higher = higher leak. Particulars: library round: Round 2; ligand: none. As for the experimental part:
(§1)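 Cell-free biosensing: 1 µL Echo-assembled CFE reactions with linear PbrR variant templates (5 nM) and pPbrR-sfGFP reporter, with 1 µM Pb, 30 µM Zn or no ligand; endpoint sfGFP fluorescence after 15 h at 30 °C calibrated as µM FITC. Round 2 ML-predicted PbrR mutants; up to 3 biological replicates.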

The variants in series [2] derive from B1. Kind of series: sfGFP reporter fluorescence (15 h) (µM FITC); higher = stronger transcriptional activation. To be noted: library round: Round 2. As for the experimental part: as §1

For MNIQIGELAKRTACPVVTIRFYEQEGLLPPPGRSRGNFRLYGEEHVERLQFIRHCRSLDMPLSDVRTLLSYRKRPDQDCGEVIMLLDEHIRQVESRIGALLELVHALVELREACSGARPAQSCGILQGLSDCVCDTRGTTAHRSD [IGDDR K104V H106A], the values for the sfGFP reporter fluorescence in series [1], in series [2] (ligand: 1 µM Pb) and in series [2] (ligand: 30 µM Zn) were 0.0522 ± 0.00085, 0.136 ± 0.0052 and 0.0496 ± 0.0028, respectively.

On to MNIQIGELAKRTACPVVTIRFYEQEGLLPPPGRSRGNFRLYGEEHVERLQFIRHCRSLDMNLSDVRTLLSYRKRPDQDCGEVNMLLDEHIRQVESRIGALLELKHHCVHLREACSGARPAQSCGILQGLSDCVCDTRGTTAHPSD [NGDDP P61N L107C E109H], for which the sfGFP reporter fluorescence in series [1] was 0.627 ± 0.1; in series [2] (ligand: 1 µM Pb), 1.51 ± 0.22; in series [2] (ligand: 30 µM Zn) it was 2.62 ± 0.31.

In the case of MNIQIGELAKRTACPVVTIRFYEQEGLLPPPGRSRGNFRLYGEEHVERLQFIRHCRSLDMPLSDVRTLLSYRKRPDQDCGEVTMLLDEHIRQVESAIGALLELVHHLVELREACSGARPAQSCGILQGLSDCVCDTRGTTAHPSD [TGDDP R96A K104V], the values for the sfGFP reporter fluorescence in series [1], in series [2] (ligand: 1 µM Pb) and in series [2] (ligand: 30 µM Zn) were 0.052 ± 0.0012, 0.0513 ± 0.0043 and 0.0712 ± 0.0018, respectively.

For the variant MNIQIGELAKRTACPVVTIRFYEQEGLLPPPGRSRGNFRLYGEEHVERLQFIRHCRSLDMPLSDVRTLLSYRKRPDQDCGEVNMLLDEHIRQVESRIGALLELKHHLVELREACSGARPAQSCGILQGLSDCVCDARGTAAHRSD [NGDDR T136A T140A], the sfGFP reporter fluorescence came out at 0.0505 ± 0.0017 in series [1], 0.0665 ± 0.0039 in series [2] (ligand: 1 µM Pb) and 0.801 ± 0.079 in series [2] (ligand: 30 µM Zn).

As for MNIQIGELAKRTACPVVTIRFYEQEGLLPPPGRSRGNFRLYGEEHVERLQFIRHCRSLDMNLSDVRTLLSYRKRPDQDCGEVNMLLDEHIRQVESRIGALLELKHHCVELREACSGARPAQSCGILQGLSDCVIDTRGTTAHPSD [NGDDP P61N L107C C134I], the sfGFP reporter fluorescence in series [1] was determined as 2.22 ± 0.18; in series [2] (ligand: 1 µM Pb), 2.54 ± 0.38; in series [2] (ligand: 30 µM Zn), 3.82 ± 0.36.

Regarding MNIQIGELAKRTACPVVTIRFYEQEGLLPPPGRSRGNFRLYGEEHVERLQFIRHCRSLDMPLSDVRTLLSYRKRPDQDCGEVNMLLDEHIRQVESRIGALLELKHHLLELREACSGARPAQSCGILQGLSDCVCDTRGATAHRSD [NGDDR V108L T139A], the sfGFP reporter fluorescence in series [1] stood at 0.0498 ± 0.0012; in series [2] (ligand: 1 µM Pb) it was 0.068 ± 0.0054; in series [2] (ligand: 30 µM Zn), 0.809 ± 0.081.

As to MNIQIGELAKRTACPVVTIRFYEQEGLLPPPGRSRGNFRLYGEEHVERLQFIRHCRSLDMPLSDVRTLLSYRKRPDQDCGEITMKLDEHIRQVESRIGALLELKHHLVELREACSGARPAQSCGILQGLSDCVCDTRGTTAHPSD [TGDDP V82I L85K], the sfGFP reporter fluorescence in series [1] amounted to 0.0407 ± 0.0021; in series [2] (ligand: 1 µM Pb) it was 0.0368 ± 0.00078; in series [2] (ligand: 30 µM Zn), 0.0458 ± 0.0007.

On to MNIQIGELAKRTACPVVTIRFYEQEGLLPPPGRSRGNFRLYGEEHVERLQFIRHCRSLDMPLSDVRTLLSYRKRPDQDCGEVTMLLDEHIRQVESRIGALLELKHHLVELDHACSGARPAQSCGILQGLSDCVCDTRGTTAHPSD [TGDDP R111D E112H], for which the results for the sfGFP reporter fluorescence in series [1], in series [2] (ligand: 1 µM Pb) and in series [2] (ligand: 30 µM Zn) were 0.0469 ± 0.002, 0.0446 ± 0.0019 and 0.0529 ± 0.003, respectively.

In the case of MNIQIGELAKRTACPVVTIRFYEQEGLLPPPGRSRGNFRLYGEEHVERLQFIRHCRSLDMPLSDVRTLLSYRKRPDQDCGEVTMLLDEHIRQVESRIGALLELKHHLVELIEACSGARPAQSCGILQGLSDCVCDTRGTTAHTSD [TGDDT R111I], the figures for the sfGFP reporter fluorescence in series [1], in series [2] (ligand: 1 µM Pb) and in series [2] (ligand: 30 µM Zn) were 0.0459 ± 0.00085, 0.0556 ± 0.0012 and 0.201 ± 0.0085, respectively.

As to MNIQIGELAKRTACPVVTIRFYEQEGLLPPPGRSRGNFRLYGEEHVERLQFIRHCRSLDMPLSDVRTLLSYRKRPDQDCGEVTMLLDEHIRQVESRIGALLELKHHLVELVEACSGARPAQSCGILQGLSDCVCDTRGTTAHTSD [TGDDT R111V], the sfGFP reporter fluorescence in series [1] worked out at 0.048 ± 0.00067; in series [2] (ligand: 1 µM Pb), 0.0656 ± 0.0064; in series [2] (ligand: 30 µM Zn) it was 0.282 ± 0.033.

With MNIQIGELAKRTACPVVTIRFYEQEGLLPPPGRSRGNFRLYGEEHVERLQFIRHCRSLDMPLSDVRTLLSYRKRPDQDCGEVTMLLDEHIRQVESRIGALLELKHHLLELRFACSGARPAQSCGILQGLSDCVCDTRGTTAHPSD [TGDDP V108L E112F], the sfGFP reporter fluorescence stood at 0.0469 ± 0.0011 in series [1], 0.0496 ± 0.0032 in series [2] (ligand: 1 µM Pb) and 0.0846 ± 0.0051 in series [2] (ligand: 30 µM Zn).

As for MNIQIGELAKRTACPVVTIRFYEQEGLLPPPGRSRGNFRLYGEEHVERLQFIRHCRSLDMNLSTVRTLLSYRKRPDQDCGEVNMLLDEHIRQVESRIGALLELKHHLVELRVACSGARPAQSCGILQGLSDCVCDTRGTTAHPSD [NGDDP P61N D64T E112V], the figures for the sfGFP reporter fluorescence in series [1], in series [2] (ligand: 1 µM Pb) and in series [2] (ligand: 30 µM Zn) were 0.117 ± 0.013, 0.294 ± 0.026 and 2.13 ± 0.17, respectively.

MNIQIGELAKRTACPVVTIRFYEQEGLLPPPGRSRGNFRLYGEEHVERLQFIRHCRSLDMPLSDVRTLLSYRKRPDQDCGEVTMLLDEHIRQVESAIGALLELKHHLVALREACSGARPAQSCGILQGLSDCVCDTRGTTAHPSD [TGDDP R96A E109A]: the figures for the sfGFP reporter fluorescence in series [1], in series [2] (ligand: 1 µM Pb) and in series [2] (ligand: 30 µM Zn) were 0.0459 ± 0.0014, 0.0588 ± 0.00089 and 0.144 ± 0.02, respectively.

On to MNIQIGELAKRTACPVVTIRFYEQEGLLPPPGRSRGNFRLYGEEHVERLQFIRHCRSLDMPLSDVRTLLSYRKRPDQDCGEVTMLLDEHIRQVESAIGALLELVHHIVELREACSGARPAQSCGILQGLSDCVCDTRGTTAHPSD [TGDDP R96A K104V L107I], for which the values for the sfGFP reporter fluorescence in series [1], in series [2] (ligand: 1 µM Pb) and in series [2] (ligand: 30 µM Zn) were 0.0526 ± 0.0017, 0.0483 ± 0.0032 and 0.0559 ± 0.002, respectively.
